According to the supplement of paper PMC10724198:
± gives the standard deviation of the averaged measurements.

Assays:
[1] = tested on: Saccharomyces cerevisiae; test: protein stability index of tFT-peptide fusion (C-terminal peptide) (PSI (0-1 scale)); higher = more stable (slower turnover)
Procedure: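 MPS profiling in S. cerevisiae of the tFT-X12 degron library: putative degron peptides plus stable controls, 12 aa, fused to the C-terminus of a sfGFP-mCherry timer. Cells are FACS-sorted into 8 mCherry/sfGFP bins and deep-sequenced. PSI runs from 0 (unstable) to 1 (stable). Backgrounds are wild type, das1Δ and doa10Δ at 30 °C, and wild type, das1Δ, cdc34-1 and cdc53-1 at 37 °C; 2-3 technical replicates each.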

[2] = tested on: Saccharomyces cerevisiae; test: as above; details: genetic background: wild type; temperature: 30 C
[3] = genetic background: cdc34-1, temperature: 37 C
[4] = genetic background: cdc53-1, temperature: 37 C
[5] = genetic background: das1 deletion, temperature: 30 C
[6] = genetic background: das1 deletion, temperature: 37 C
[7] = genetic background: doa10 deletion, temperature: 30 C
[8] = genetic background: wild type, temperature: 30 C
[9] = genetic background: wild type, temperature: 37 C
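Also: PSI is a weighted mean of sequencing reads over stability bins, variants kept only with over 10 reads, mCherry proximal and sfGFP distal, peptide attached via GGGS linker.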

Sequence	protein stability index [1, 3]	protein stability index [1, 4]	protein stability index [1, 5]	protein stability index [1, 6]	protein stability index [1, 7]	protein stability index [1, 8]	protein stability index [1, 9]	protein stability index [2]
SWGEQDRLTGYI	0.715 ± 0.029	0.77 ± 0.02	0.689 ± 0.024	0.787 ± 0.0083	0.669 ± 0.018	0.674 ± 0.026	0.712 ± 0.023	0.7195 ± 0.0031
VLSCVWFVVVGV	0.247 ± 0.013	0.316 ± 0.034	0.245 ± 0.028	0.441 ± 0.019	0.202 ± 0.0034	0.22 ± 0.033	0.4017 ± 0.0016	0.3596 ± 0.00083
WVSFFILYCVYR	0.274 ± 0.016	0.345 ± 0.024	0.253 ± 0.04	0.445 ± 0.017	0.23 ± 0.0055	0.237 ± 0.018	0.378 ± 0.011	0.232 ± 0.03
PPPLCSTCIRCC	0.197 ± 0.035	0.206 ± 0.038	0.224 ± 0.027	0.354 ± 0.0097	0.175 ± 0.0021	0.205 ± 0.019	0.274 ± 0.013	0.293 ± 0.0083
RVLCLVSSLTLF	0.549 ± 0.013	0.592 ± 0.0061	0.413 ± 0.027	0.612 ± 0.017	0.352 ± 0.0058	0.388 ± 0.026	0.5961 ± 0.00089	0.441 ± 0.0073
RIVSGVVLLVFV	0.404 ± 0.0079	0.469 ± 0.0074	0.237 ± 0.019	0.5234 ± 0.0034	0.206 ± 0.015	0.226 ± 0.042	0.527 ± 0.034	0.336 ± 0.035
LLFLLSPFNFAV	0.651 ± 0.035	0.726 ± 0.0084	0.63 ± 0.022	0.737 ± 0.0093	0.2535 ± 0.0025	0.303 ± 0.017	0.524 ± 0.03	0.328 ± 0.07
VFLSCFFVSWVV	0.328 ± 0.019	0.403 ± 0.047	0.226 ± 0.027	0.40329 ± 5.2e-05	0.202 ± 0.011	0.204 ± 0.015	0.369 ± 0.03	0.3269 ± 0.0017
SFFYFVFYYLSF	0.161 ± 0.042	0.17 ± 0.019	0.259 ± 0.015	0.364 ± 0.017	0.253 ± 0.016	0.204 ± 0.033	0.308 ± 0.01	0.2916 ± 0.0027
FRCRFLLPFYSV	0.673 ± 0.013	0.724 ± 0.0096	0.632 ± 0.0089	0.733 ± 0.01	0.403 ± 0.013	0.438 ± 0.014	0.603 ± 0.0033	0.482 ± 0.019
QGPHISQYRTHR	0.67 ± 0.022	0.7226 ± 0.0053	0.6413 ± 0.0052	0.745 ± 0.025	0.676 ± 0.0068	0.673 ± 0.014	0.728 ± 0.0094	0.706 ± 0.0037
YARFWYSKAFIC	0.455 ± 0.048	0.555 ± 0.011	0.581 ± 0.033	0.694 ± 0.025	0.12 ± 0.023	0.115 ± 0.012	0.169 ± 0.0034	0.2 ± 0.013
VSFLLYNFLSVF	0.286 ± 0.0083	0.418 ± 0.0077	0.346 ± 0.028	0.4643 ± 0.0021	0.053 ± 0.019	0.0707 ± 0.012	0.0652 ± 0.015	0.101 ± 0.0017
GTVRSLLKWRCS	0.654 ± 0.051	0.732 ± 0.0075	0.651 ± 0.027	0.7431 ± 0.0073	0.148 ± 0.016	0.192 ± 0.02	0.384 ± 0.011	0.3259 ± 0.00055
SLVVMGSLWLRI	0.275 ± 0.15	0.162 ± 0.093	0.346 ± 0.081	0.463 ± 0.024	0.468 ± 0.052	0.314 ± 0.077	0.425 ± 0.07	0.415 ± 0.0096
VGVSCLVFFGVV	0.644 ± 0.023	0.653 ± 0.0091	0.511 ± 0.017	0.6636 ± 0.0025	0.484 ± 0.026	0.509 ± 0.021	0.633 ± 0.0085	0.549 ± 0.11
WWADRLVGVCIV	0.55 ± 0.034	0.539 ± 0.026	0.439 ± 0.024	0.587 ± 0.0076	0.38961 ± 2.3e-05	0.422 ± 0.023	0.5359 ± 0.00088	0.491 ± 0.011
ALVGEVLWFQLV	0.684 ± 0.039	0.7569 ± 0.006	0.651 ± 0.023	0.749 ± 0.013	0.317 ± 0.0039	0.357 ± 0.034	0.586 ± 0.029	0.471 ± 0.0021
STLPACNCLKLL	0.663 ± 0.015	0.7607 ± 0.0055	0.622 ± 0.011	0.741 ± 0.013	0.332 ± 0.015	0.371 ± 0.03	0.565 ± 0.015	0.426 ± 0.069
VPIIVVVYVFVT	0.13 ± 0.022	0.247 ± 0.11	0.157 ± 0.03	0.306 ± 0.024	0.105 ± 0.025	0.134 ± 0.038	0.258 ± 0.0081	0.203 ± 0.085

Sequence	protein stability index [1, 3]	protein stability index [1, 4]	protein stability index [1, 5]	protein stability index [1, 6]	protein stability index [1, 7]	protein stability index [1, 8]	protein stability index [1, 9]	protein stability index [2]
DLIGSVRRLFCV	0.651 ± 0.042	0.725 ± 0.013	0.621 ± 0.014	0.728 ± 0.017	0.18 ± 0.0082	0.214 ± 0.0082	0.303 ± 0.0047	0.27 ± 0.042
VWICPTLFLLFS	0.486 ± 0.03	0.509 ± 0.0088	0.369 ± 0.05	0.544 ± 0.013	0.45736 ± 0.00021	0.374 ± 0.018	0.529 ± 0.0063	0.455 ± 0.014
FCFLLLVSFFFV	0.234 ± 0.0069	0.407 ± 0.21	0.252 ± 0.029	0.388 ± 0.0052	0.211 ± 0.011	0.219 ± 0.034	0.33 ± 0.014	0.31 ± 0.028
FVWWFFFLSVVS	0.277 ± 0.0019	0.306 ± 0.023	0.265 ± 0.032	0.3987 ± 0.0029	0.255 ± 0.016	0.216 ± 0.018	0.334 ± 0.025	0.26 ± 0.018
VVRAVLCVCASV	0.4577 ± 0.0025	0.489 ± 0.0069	0.409 ± 0.028	0.518 ± 0.0019	0.387 ± 0.012	0.413 ± 0.021	0.489 ± 0.018	0.45987 ± 0.00039
AFYLCLYFMPVS	0.454 ± 0.026	0.548 ± 0.036	0.371 ± 0.028	0.503 ± 0.012	0.358 ± 0.032	0.367 ± 0.029	0.52 ± 0.0093	0.4375 ± 0.0033
PWWDALLRARVC	0.429 ± 0.033	0.6 ± 0.054	0.435 ± 0.021	0.625 ± 0.019	0.103 ± 0.013	0.115 ± 0.022	0.159 ± 0.0039	0.163 ± 0.025
FRLCQRPVFLLS	0.586 ± 0.054	0.669 ± 0.014	0.542 ± 0.018	0.676 ± 0.0091	0.182 ± 0.0059	0.22 ± 0.017	0.408 ± 0.02	0.35 ± 0.0061
SIRVIVAVRNIS	0.621 ± 0.033	0.648 ± 0.041	0.554 ± 0.023	0.663 ± 0.0092	0.21 ± 0.015	0.239 ± 0.038	0.4346 ± 0.0024	0.431 ± 0.052
PISNMSIILLFL	0.495 ± 0.072	0.595 ± 0.043	0.439 ± 0.028	0.593 ± 0.016	0.378 ± 0.018	0.391 ± 0.015	0.556 ± 0.027	0.48 ± 0.04
IPRSCRIRLAVL	0.658 ± 0.03	0.715 ± 0.0073	0.562 ± 0.032	0.7175 ± 0.0055	0.254 ± 0.0096	0.271 ± 0.027	0.359 ± 0.021	0.359 ± 0.014
FFGFYLKFVWCG	0.431 ± 0.062	0.4683 ± 0.0021	0.391 ± 0.024	0.516 ± 0.0079	0.146 ± 0.015	0.152 ± 0.019	0.258 ± 0.025	0.21 ± 0.019
PALLLFLRNLLL	0.714 ± 0.022	0.7282 ± 0.0042	0.6419 ± 0.0029	0.757 ± 0.017	0.304 ± 0.018	0.352 ± 0.059	0.542 ± 0.009	0.447 ± 0.012
ALLWEFVPCSVR	0.521 ± 0.032	0.52 ± 0.0073	0.354 ± 0.036	0.56 ± 0.0061	0.3287 ± 0.0015	0.375 ± 0.022	0.5347 ± 0.0023	0.453 ± 0.015
LFSFFVFFFLLD	0.358 ± 0.086	0.446 ± 0.0062	0.364 ± 0.044	0.522 ± 0.031	0.375 ± 0.005	0.37 ± 0.031	0.476 ± 0.02	0.435 ± 0.034
WLWFVGCLAAPL	0.63 ± 0.032	0.662 ± 0.066	0.529 ± 0.024	0.6316 ± 0.001	0.523 ± 0.021	0.536 ± 0.04	0.5957 ± 0.0016	0.541 ± 0.07
VGDIRSFALWYA	0.699 ± 0.039	0.765 ± 0.014	0.661 ± 0.015	0.74 ± 0.0047	0.656 ± 0.038	0.646 ± 0.011	0.707 ± 0.011	0.745 ± 0.041
RLVPFMAVRVLF	0.571 ± 0.034	0.6204 ± 0.0016	0.517 ± 0.013	0.6492 ± 0.0023	0.413 ± 0.025	0.41 ± 0.018	0.5719 ± 0.0024	0.487 ± 0.044
GWWCGIGVAVSV	0.432 ± 0.039	0.461 ± 0.039	0.337 ± 0.03	0.5114 ± 0.0051	0.292 ± 0.0069	0.339 ± 0.027	0.477 ± 0.01	0.464 ± 0.015
